{
  "source": "paper PMC4219823",
  "about": "“A Nuclear Factor of High Mobility Group Box Protein in Toxoplasma gondii”",
  "target": "T1, TgGRA1 (Toxoplasma gondii, UniProt P13403 25-190)",
  "T1 sequence": "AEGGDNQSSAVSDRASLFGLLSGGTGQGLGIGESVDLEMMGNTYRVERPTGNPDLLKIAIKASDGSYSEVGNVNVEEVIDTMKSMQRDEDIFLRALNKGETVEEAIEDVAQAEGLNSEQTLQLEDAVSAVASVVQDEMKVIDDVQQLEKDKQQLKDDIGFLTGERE",
  "assay": "EMSA; 2 mg/mL protein",
  "settings": "protein: recombinant; tags: His; label: biotin (TdT labeling); four-way junction of 4 strands",
  "data": [
    {"binder": "4H cruciform DNA (4H-a/4H-b/4H-c/4H-d) (structured_DNA) DNA 1: AACAGTAGCTTATTCGAGCTCGCGCCCTATCACGACGACTA DNA 2: GTAGTCGTCGTGATAGGTGCAGGGGTTATAGGG DNA 3: CCCTATAACCCCTGCATTGAATTCCAGTCTGATAA DNA 4: TTTATCAGACTGGAATTCAAGCGCGAGCTCGAATAAGCTACTGT", "values": [
      {"measurement": "binding result", "result": "no binding"}
    ]}
  ]
}
